# Experimental data as given in PMC2793518, “Fiber Mediated Receptor Masking in Non-Infected Bystander Cells Restricts Adenovirus Cell Killing Effect but Promotes Adenovirus Host Co-Existence” (PLoS ONE, 2009).
# T1: CAR on A549 cells (human (endogenous in A549), UniProt P78310 20-365)
# T1 sequence: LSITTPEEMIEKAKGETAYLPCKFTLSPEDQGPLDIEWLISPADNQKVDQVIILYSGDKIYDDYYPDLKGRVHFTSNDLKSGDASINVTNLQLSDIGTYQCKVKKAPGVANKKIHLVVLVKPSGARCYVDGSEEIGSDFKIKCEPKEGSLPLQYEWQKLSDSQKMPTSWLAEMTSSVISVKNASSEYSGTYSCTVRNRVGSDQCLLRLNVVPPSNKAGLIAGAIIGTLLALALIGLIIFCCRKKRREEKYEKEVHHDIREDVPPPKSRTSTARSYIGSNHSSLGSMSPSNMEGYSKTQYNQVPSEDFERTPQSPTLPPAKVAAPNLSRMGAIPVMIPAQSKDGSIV
# B1: Ad5 fiber (free trimeric fiber molecules released from Ad5-CRAD or WT Ad5 infected cells) (natural protein)
# chain: MKRARPSEDTFNPVYPYDTETGPPTVPFLTPPFVSPNGFQESPPGVLSLRLSEPLVTSNGMLALKMGNGLSLDEAGNLTSQNVTTVSPPLKKTKSNINLEISAPLTVTSEALTVAAAAPLMVAGNTLTMQSQAPLTVHDSKLSIATQGPLTVSEGKLALQTSGPLTTTDSSTLTITASPPLTTATGSLGIDLKEPIYTQNGKLGLKYGAPLHVTDDLNTLTVATGPGVTINNTSLQTKVTGALGFDSQGNMQLNVAGGLRIDSQNRRLILDVSYPFDAQNQLNLRLGQGPLFINSAHNLDINYNKGLYLFTASNNSKKLEVNLSTAKGLMFDATAIAINAGDGLEFGSPNAPNTNPLKTKIGHGLEFDSNKAMVPKLGTGLSFDSTGAITVGNKNNDKLTLWTTPAPSPNCRLNAEKDAKLTLVLTKCGSQILATVSVLAVKGSLAPISGTVQSAHLIIRFDENGVLLNNSFLDPEYWNFRNGDLTEGTAYTNAVGFMPNLSAYPKSHGKTAKSNIVSQVYLNGDKTKPVTLTITLNGTQETGDTTPSAYSMSFSWDWSGHNYINEIFATSSYTFSYIAQE
# Molecular target: T1, CAR on A549 cells
# Test: cell-based or functional assay
binder,measurement,value
B1,"percent GFP+ cells 24 hr after super-infection with Ad5-PGK-GFP (MOI 10) of A549 cultures infected 6 days before with Ad5-CRAD (MOI 1.0), relative to cultures without prior Ad5-CRAD infection",60 % of control
